Measurements: CN118459575A (CHENZHOU NO 1 PEOPLES HOSPITAL, dated 2024)

How the values were obtained:
[1] = target: T1, SARS-CoV-2 S1蛋白 (Sino Biological, 货号 40591-V08H) (SARS-CoV-2, UniProt P0DTC2 16-685); experiment: ELISA, S1 coated at 2 μg/mL, antibody at 1 μg/mL
T1 construct: domain: S1

[2] = target: T2, SARS-CoV-2 S2蛋白 (Sino Biological, 货号 40590-V08B) (SARS-CoV-2, UniProt P0DTC2 686-1213); experiment: ELISA, S2 coated at 2 μg/mL, antibody at 1 μg/mL
T2 construct: domain: S2

[3] = target: SARS-CoV S1蛋白 (Sino Biological, 货号 40150-V08B1) (SARS-CoV, UniProt P59594 14-667); experiment: ELISA, S1 coated at 2 μg/mL, antibody titrated
[4] = target: T3, SARS-CoV-2-Hu-1 S蛋白 (Sino Biological, 货号 40589-V08B1) (SARS-CoV-2, UniProt P0DTC2 14-1213); experiment: ELISA screen, S protein coated at 2 μg/mL, antibody at 1 μg/mL
T3 construct: extracellular domain

[5] = target: SARS-CoV-2 Gamma突变株 S蛋白 (假病毒) (SARS-CoV-2 Gamma); experiment: cell-based or functional assay
[6] = target: SARS-CoV-2 Delta突变株 S蛋白 (假病毒) (SARS-CoV-2 Delta); experiment: cell-based or functional assay

B1: 广谱抗sarbecovirus和/或新冠突变株的抗体 SCM12-61 (antibody, V domains shown)
VH: QVQLVESGGGVVQPGRSLRLSCATSGFTFRSSAMHWVRQAPGKGLEWVAVIWFDGIKKYYTDSVKGRFTISRDNSKNTLYLQMNSLGAEDTAVYYCARDRAREFYPGPHCGDECYSSDAFDVWGQGTTVIVSS
VL: DIQMTQSPSSLSASVGDRVTITCRASQDINTYLNWYQQKSGRAPKFLIYAASSLQSGIPSRFSGSGSGTDFTLTIDSLQPEDFATYYCQQSHSIPYTFGQGTKLEIKR
Question: Does B1 bind [1]?
Answer: binds

Question: Does B1 bind [2]?
Answer: no binding (tested: 1μg/mL)

Question: Does B1 bind [3]?
Answer: binds

Question: Does B1 bind [4]?
Answer: binds

Question: And the “假病毒中和 IC50” value [5]?
Answer: 0.00813 µg/mL

Question: What about the “假病毒中和 IC50” value [6] of the same binder?
Answer: 0.0248 µg/mL
